Measurements as given in a protein production outcome set (Wang et al. 2014).

Experiment: label from the status in PepcDB records

| Sequence | protein production |
| --- | --- |
| MGFYGGGSMASGRPESTGIDSLGIGKILAVYIKDNENLAIDEDKLQLTAELIRVFSASPGRDIVSQVNEDGGGSFSLSLDLQQFKKISDIENFFINLEDNPKGVIPCMNAAVHKVLFDQWETNEFENVMKINVRLHNYPESSISLKNLRAAYIGKLVTVHGTVVKVSTVKPLVTQMAFDCGKCKTGITREFTDGKFSPPLKCDSHGCKSKTFTPIRSSAQTIDFQKIRVQELQKPEDHEEGRVPRTVECELMEDLVDICIPGDVVTVTGIIGVINNYMDIGGGKSKTKNQGFYYLFIEAVSVKNTKRQSAFENSEDSSSSAQTADVGDLYSFSQRDLEFIVKFKEEYGSDTFRRILHSVCPSIYGHEIVKAGITLSLFGGVRKHSMDRNKVPVRGDIHVIIVGDPGLGKSQLLQAAAAISPRGIYVCGNATTRAGLTVAVVKDSMTNDYAFEAGAMVLADGGLCCIDEFDKMTTEHQALLEAMEQQCVSVAKAGLVASLSARTSVIAAANPVGGHYNRAKTVNENLKMSAALLSRFDLVFILLDKPDELLDKQVSEHIMSHHRMLGMQTCMQKGILYFQDCGWTLRKMTTFLRFLANCLGNIFPMHGILMSKDAGEIIQKFYLKLRDHNTSADSTPITARQLESLVRLAQARARVDLREEITVQDAMDVVEIMKESLYDKLIDEHGVVDFGRSGGMSQQKEAKRFLSALDKQSELQQKDCFSVSEMYSLADRIGLRVPDIDTFLENLNIAGYLLKKGPKTYQVLSSSYSRSQSSRSR | failed |
| MGGDSVAIFTADMSVSGELRNDIELHLRRGIESDALRLVYLPEVDLRTGDIVGTEALVRWQHPTRGLLAPGCFIPVAESINLAGELDRWVLRRACNEFSEWQSAGLGHDALLRINVSAGQLVTGGFVDFVADTIGQHGLDASSVCLEITENVVVQDLHTARATLARLKEVGVHIAIDDFGTGYSAISLLQTLPIDTLKIDKTFVRQLGTNTSDLVIVRGIMTLAEGFQLDVVAEGVETEAAARILLDQRCYRAQGFLFSRPVPGEAMRHMLSARRLPPTCILEHHHHHH | failed |
| MGGITMTAVVSNRDKINFHEVADHYHSNKIIFGIKFLKNWALERLASCAPVPSWRAKLHKMRGVNIGENVYIGYDVIFDRIHPEMITVGDYAEIGDRCILSAHSRGSLTTRQAYPRSIAPIKIGRGVSVNPGCIITQGVEIGDNSIIGVGSVVSRNISPNSLALGYPAKVIKKLDGLEHHHHHH | not failed |
| MGGITMTAVVSNRDKINFHEVADHYHSNKIIFGIKFLKNWALERLASCAPVPSWRAKLHKMRGVNIGENVYIGYDVIFDRIHPEMITVGDYAEIGDRCILSAHSRGSLTTRQAYPRSIAPIKIGRGVSVNPGCIITQGVEIGDNSIIGVGSVVSRNISPNSLALGYPAKVIKKLDGVGELQTLEHHHHHH | failed |
| MGGKMRLLPIRKISRQSKRLALFLTFCAGYVDAYTFIVRGNTLVAGQTGNVVFLSVELIKNNVSDVRDKVLTLLAFMMGVFLLTIYKEKLRIVKKP | failed |
| MGGPAYDCLTNPLGAVRFSFVNALSSGYDPASSVGKDWGVVDLFRHYFSDESAISQVPILDSSSIKWVQPKTLVRFRGMIQDMLGNEFYAGAYKDDSTWRTNKYSDVSQFPEGSSTEIQVWERRLLYCVPVPGKNQWTECSSQELKNRFLDLTGQNREKRVRVDEEMTDSMDSSKVGEATSSASESQVPQTSGIPPATSADSLPCLVKIYDSPESDLKLNDVVEFLGVLTFDPIVMMDTDTLDENSDALSEAESVQMPSGKQPKSPQIFKEIRESLMKYLTGLLGNDHIAAQFLLLHLLSKVHGRVDNVAVGKLSLNLIHLNKESMSIFGTQLSGALKSLLPFTQSIPLTIEYLNTASFGPKKDYGINRLMPGVLQIADGTHLILDETELQPGTLNSVGVENANLLKNLLECQKVEYDFQYYKMEMATDVQMLIFSEGKSNIMPADLVLPLQPSQVNSLEVITPETAETWRCYLATCKSLSHSIGQELQQVVENDLVAARQTDRSLGSQDLSRLLTMARMMSVSYGETTLSLEHWQMVLELERLRKERLK | failed |
| MGGSLRVAVLGAPGVGKTAIIRQFLFGDYPERHRPTDGPRLYRPAVLLDGAVYDLSIRDGDVAGPGSSPGGPEEWPDAKDWSLQDTDAFVLVYDICSPDSFDYVKALRQRIAETR | failed |
| MGHFDTPSLSRDAALLPDTGEPGFGVYVHWPFCAAKCPYCDFNSHVRHQPVDQERFAAAFLKEMAAVRAMSGPKTVTSIFLGGGTPSLMKPETVSAILDGIARHWHVPAGIEITMEANPSSVEAERFRGYRAAGVNRVSLGVQALNDRDLKFLGRLHDVADALKAIRLAREIFPRMSFDLIYARPDQTVDEWEKELKEAISYAVDHLSLYQLTIEEGTPFFGLHKSGKLIVPDGEQSALLYEATQEITAREGMPAYEVSNHARPGAESRHNLTYWRYGDYAGIGPGAHGRLTRGHEKLATATERKPEAWLEMVERDGHGILDEERLGFEEQSDELLLMGLRLREGVDLARWQQLSGRELDPKREEFLLEHKFIERIGNSRLRCTSAGMLILDSVVADLAC | failed |
| MGHHHHHHENLYFQSHMDSKRAALESGDGPDAKRLDTTDDQDKEASGGDGSQVMLAKHVAPYTGHGCTPPMESYLFEPTPAGSQLLPWKTSVDLDNDAELEKPTSDKKPDTAKLSRRELAKMRREHTLRALALERELTNKPGQTPASEVLLVRFPDPEITAPMLAG | not failed |
| MGHHHHHHENLYFQSHMKFLLAFSLLIPSVVFASSSKFQQVEQDVKAIEVSLSARIGVSVLDTQNGEYWDYNGNQRFPLTSTFKTIACAKLLYDAEQGKVNPNSTVEIKKADLVTYSPVIEKQVGQAITLDDACFATMTTSDNTAANIILSAVGGPKGVTDFLRQIGDKETRLDRIEPDLNEGKLGDLRDTTTPKAIASTLNKFLFGSALSEMNQKKLESWMVNNQVTGNLLRSVLPAGWNIADRSGAGGFGARSITAVVWSEHQAPIIVSIYLAQTQASMEERNDAIVKIGHSIFDVYTSQSR | not failed |
| MGHHHHHHSHDPFAHLPKSTFVLDEFKRKYSNEDTLSVALPYFWEHFDKDGWSLWYSEYRFPEELTQTFMSCNLITGMFQRLDKLRKNAFASVILFGTNNSSSISGVWVFRGQELAFPLSPDWQVDYESYTWRKLDPGSEETQTLVREYFSWEGAFQHVGKAFNQGKIFK | not failed |
| MGHHHHHHSHIEETTMTTQTPAPIQAPSAILPLPGQSVERLCVDPRHRQGPVNLLSDPEQGVEVTGQYEREKAGFSWIEVTFKNPLVWVHASPEHVVVTRNRRSSAYKWKETLFSVMPGLKMTMDKTGLLLLSDPDKVTIGLLFWDGRGEGLRLLLRDTDRFSSHVGGTLGQFYQEVLWGSPAASD | failed |
| MGHHHHHHSHLYPGSVYGRLIDLCQPTQKKYQIAVTKVLGKNMDAIIVDSEKTGRDCIQYIKEQRGEPETFLPLDYLEVKPTDEKLRELKGAKLVIDVIRYEPPHIKKALQYACGNALVCDNVEDARRIAFGGHQRHKTVALDGTLFQKSGVISG | not failed |
| MGHHHHHHSHMAFPSDATAEQGPILTKHGKNPVMELNEKRRGLKYELISETGGSHDKRFVMEVEVDGQKFQGAGSNKKVAKAYAALAALEKLFPDTPLALDANK | failed |
| MGHHHHHHSHMAPWRKADKERHGVAIYNFQGSGAPQLSLQIGDVVRIQETCGDWYRGYLIKHKMLQGIFPKSFIHIK | failed |
| MGHHHHHHSHMASLTVKAYLLGKEDAAREIRRFSFCCSPEPEAEAEAAAGPGPCERLLSRVAALFPALRPGGFQAHYRDEDGDLVAFSSDEELTMAMSYVKDDIFRIYIKEKKECRRDHRPPCAQEAPRNMVHP | failed |
| MGHHHHHHSHMDVTIQHPWFKRTLGPFYPSRLFDQFFGEGLFEYDLLPFLSSTISPYYRQSLFRTVLDSGISEVRSDRDKFVIFLDVKHFSPEDLTVKVQDDFVEIHGKHNERQDDHGYISREFHRRYRLPSNVDQSALSCSLSADGMLTFCGPKIQTGLDATHAER | failed |
| MGHHHHHHSHMGKITFYEDRAFQGRSYETTTDCPNLQPYFSRCNSIRVESGCWMLYERPNYQGQQYLLRRGEYPDYQQWMGLSDSIRSCCLIPQTVSHRLRLYEREDHKGLMMELSEDCPSIQDRFHLSEIRSLHVLEGCWVLYELPNYRGRQYLLRPQEYRRCQDWGAMDAKAGSLRRVVDLY | not failed |
| MGHHHHHHSHMGRGKGPAAEEPLSLLDDMNHCYSRLRELVPGVPRGTQLSQVEILQRVIDYILDLQVV | not failed |
| MGHHHHHHSHMIQYIPQRPPIVMISTLVSAEKNVTETELEIPAHGLFVKDGVLHEPGLIENVAQTAAAGVGYACTLTSQPVPVGFIGAVKNLEIDYLPKVGDVLETRVEVLEEIFDMTLIKGESFVKGKRVLTCEMKIVLKK | failed |
| MGHHHHHHSHMLITVYCVRRDLSEVTFSLQVSPDFELRNFKVLCEAESRVPVEEIQIIHMERLLIEDHCSLGSYGLKDGDIVVLLQKDNVGPRAPGRAPNQPRVDFSGIAVPGTSSSRPQHPGQQQQRTPAAQRSQGLASGEKVAGLQGLGSPALIRSMLLSNPHDLSLLKERNPPLAEALLSGSLETFSQVLMEQQREKALREQERLRLYTADPLDREAQAKIEEEIRQQNIEENMNIAIEEAPESFGQVTMLYINCKVNGHPLKAFVDSGAQMTIMSQACAERCNIMRLVDRRWAGVAKGVGTQRIIGRVHLAQIQIEGDFLQCSFSILEDQPMDMLLGLDMLRRHQCSIDLKKNVLVIGTTGTQTYFLPEGELPLCSRMVSGQDESSDKEITHSVMDSGRKEH | failed |
| MGHHHHHHSHMNSCILQATVVEAPQLRYTQDNQTPVAEMVVQFPGLSSKDAPARLKVVGWGAVAQELQDRCRLNDEVVLEGRLRINSLLKPDGNREKQTELTVTRVHHLTLDSATGI | failed |
| MGHHHHHHSHMPDHGDWTYEEQFKQLYELDGDPKRKEFLDDLFSFMQKRGTPVNRIPIMAKQVLDLFMLYVLVTEKGGLVEVINKKLWREITKGLNLPTSITSAAFTLRTQYMKYLYPYECEKRGLSNPNELQAAIDSNRREGRR | not failed |
| MGHHHHHHSHMSEYLAAADYLPHSAPMVLVDEVIHVDDEHAHCRVAVSREGILAPFLNAQGHLPAWFGIEIIAQTIGVWSGWHGRQSLGLQEKPRPGMLLGGRGYHCQQAIFPAGSLLDVTVMLVMRDEKIGSFEGEIAIDGEKYASGRLNTYQPDDRELNILLEQGKPL | failed |
| MGHHHHHHSHMSHYRPELPAPRTDWSLSDVDQWDTAALADGIKSFLLALPAPLVTPEASAEARRALREAAGPVGPALEPPTLPLHRALTLRFLLQHLGRVARRAPALGPAVRALGATF | failed |
| MGHHHHHHSHMTDPSKLAVAVVCSSNMNRSMEAHNFLAKKGFNVRSYGTGERVKLPGMAFDKPNVYEFGTKYEDIYRDLESKDKEFYTQNGLLHMLDRNRRIKKCPERFQDTKEQFDIIVTVEERVYDLVVMHMESMESVDNRPVHVLNVDVVDNAEDALMGAFVITDMINMMAKSTDLDNDIDELIQEFEERRKRVILHSVLFY | not failed |
| MGHHHHHHSHMTLRCLEPSGNGGEGTRSQWGTAGSAEEPSPQAARLAKALRELGQTGWYWGSMTVNEAKEKLKEAPEGTFLIRDSSHSDYLLTISVKTSAGPTNLRIEYQDGKFRLDSIICVKSKLKQFDSVVHLIDYYVQMCKDKRTGPEAPRNGTVHLYLTKPLYTSAPSLQHLCRLTINKCTGAIWGLPLPTRLKDYLEEYKFQV | failed |
| MGHHHHHHSHMVASWELRVEGRLLEDSALSKYDATKQKRKFSSFFKSLVIELDKDLYGPDNHLVEWHRTATTQETDGFQVKRPGDVNVRCTVLLMLDYQPPQFKLDPRLARLLGIHTQTRPVIIQALWQYIKTHKLQDPHEREFVI | failed |
| MGHHHHHHSHPQLLHFVDQYREQLIARVTSVEVVLDKLHGQVLSQEQYERVLAENTRPSQMRKLFSLSQSWDRKCKDGLYQALKETHPHLIMELWEKGSKKGLLPLSS | not failed |
